These results are taken from patent US20170081379A1 (Dana-Farber, published 2017).

Bridge positions count the residues as written; N and C are the ends. Square brackets hold non-standard residues; d marks the D form. R8 = C=CCCCCCC[C@@](C)(N)C(=O)O; S5 = C=CCCC[C@](C)(N)C(=O)O

For this assay, the target named is T1, recombinant HDM2 17-125 (human, UniProt Q00987 17-125).
T1 construct: range 17-125
Nature of the assay: fluorescence polarization competition: unlabeled peptide titrated against FITC-WT p53 14-29 (25 nM) bound to HDM2 17-125. As to the method: FIG. 12 Competition by fluorescence polarization. Fluoresceinated, wild type p53₁₄₋₂₉ (25 nM) was incubated with recombinant HDM2₁₇₋₁₂₅. Unlabeled SAH-p53s were titrated into the mixture, and displacement of the labeled ligand was measured by fluorescence polarization.
The ability of various SAH-p53s to compete with wild-type p53₁₄₋₂₉ for binding to HDM2₁₇₋₁₂₅ was assessed as follows. Fluoresceinated, wild type p53₁₄₋₂₉ (25 nM) was incubated with recombinant HDM2₁₇₋₁₂₅. Unlabeled SAH-p53s were titrated into the mixture, and displacement of the labeled ligand was measured by fluorescence polarization.
For orientation: Fluorescence polarisation rises when a labelled molecule tumbles more slowly, as on binding a larger partner.

B1: SAH-p53-4 (peptide)
peptide: Ac-LSQETF[R8]DLWKLL[S5]EN-NH2
modifications: staple 7-14
notes: the FITC-labeled form is m4; also called unlabeled SAH-p53-4; Ac-SAH-p53-4
For B1, the binding result is on record as “binds”.
